The experiment concerns the target Full-length human KLHL41 GST fusion protein (human) (UniProt O60662). Nature of the experiment: AlphaScreen or HTRF.

From publication doi:10.1101/487454 come the findings set out here.

Chain of UniProt O60662 (O60662 whole entry, the tested form may be a part): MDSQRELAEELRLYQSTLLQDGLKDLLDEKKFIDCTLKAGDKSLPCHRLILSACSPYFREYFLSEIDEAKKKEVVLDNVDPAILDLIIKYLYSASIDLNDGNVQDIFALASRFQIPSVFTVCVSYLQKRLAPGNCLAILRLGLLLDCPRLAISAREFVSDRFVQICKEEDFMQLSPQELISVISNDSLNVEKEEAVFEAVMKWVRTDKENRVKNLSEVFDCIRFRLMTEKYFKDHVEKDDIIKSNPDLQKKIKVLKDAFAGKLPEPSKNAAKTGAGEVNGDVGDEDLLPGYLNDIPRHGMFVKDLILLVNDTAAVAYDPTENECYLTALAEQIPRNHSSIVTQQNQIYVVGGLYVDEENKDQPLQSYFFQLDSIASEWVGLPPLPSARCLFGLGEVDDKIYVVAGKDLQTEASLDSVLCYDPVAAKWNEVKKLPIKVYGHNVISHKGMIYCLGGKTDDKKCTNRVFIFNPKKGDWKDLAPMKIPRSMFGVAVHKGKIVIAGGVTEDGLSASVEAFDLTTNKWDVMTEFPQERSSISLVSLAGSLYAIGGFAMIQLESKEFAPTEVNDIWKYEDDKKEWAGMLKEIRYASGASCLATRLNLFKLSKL

In turn, “Human NEB (aa 5647-5849) MBP-HA fusion protein (from UniProt P20929 5647-5849) (domain or fragment)” yielded a delta F% (HTRF, 10nM KLHL41 and 100nM NEB) of 950%.
